# Source: PMC3936717 (Nucleic Acids Research, 2013)
# Biological target: the molecule itself
# Experiment: crystal structure
protein,measurement,value
"P2 Cox protein of bacteriophage P2 (natural protein, UniProt P07695 1-91, looked up) MSKQVTLMTDAIPYQEFAKLIGKSTGAVRRMIDKGKLPVIDMTDPQSASGRAGEYWVYLPAWNNGLKLAYESRPKEIRDGWLMWLGLGEPR",binding result,binds
